From patent US20220267469A1 (LIPUM, published 2022)
Residue numbers refer to the chain shown, from its start. Names and notes keep the numbering of the source.

B1: S-SL048-10 hIgG4 S228P (antibody, V domains shown)
VH: QVQLVQSGAEVKKPGASVKVSCKASGYTFTSYNMHWVRQAPGQGLEWIGVINPSDGYTSYAQKFQGRVTMTRDTSTSTVYMELSSLRSEDTAVYYCARDYYGSSPLGYWGQGTLVTVSS
VL: DIQMTQSPSSLSASVGDRVTITCRASPSISYLNWYQQKPGKAPKLLIYATSRLPSGVPSRFSGSGSGTDFTLTISSLQPEDFATYYCQQRSSSPTFGQGTKLEIK
notes: Tested as human IgG4 S228P
B2: S-SL048-13 hIgG4 S228P (antibody, V domains shown)
VH: B1 VH with Y57A, A61T
VL: B1 VL with R24S, R52S, P54A
notes: Tested as human IgG4 S228P
B3: S-SL048-17 hIgG4 S228P (antibody, V domains shown)
VH: B1 VH with I48M, S54G, A61T, Q65K
VL: B1 VL with P27Q, T50A, R52K
notes: Tested as human IgG4 S228P
B4: S-SL048-18 hIgG4 S228P (antibody, V domains shown)
VH: B1 VH with I48M, Y57A, A61T, Q65K
VL: B1 VL with P27S, P54Q, Q88H, S93T
notes: Tested as human IgG4 S228P
B5: S-SL048-43 hIgG4 S228P (antibody, V domains shown)
VH: B1 VH with I48M, S54G, Y57A, A61T
VL: B1 VL with L32M, T50A, R52S
notes: Tested as human IgG4 S228P
B6: S-SL048-47 hIgG4 S228P (antibody, V domains shown)
VH: B1 VH with S54G, D55G, A61T
VL: B1 VL with R24S, L32M, P54Q, S93T
notes: Tested as human IgG4 S228P
B7: S-SL048-79 hIgG4 S228P (antibody, V domains shown)
VH: B1 VH with I48M, Y57A
VL: B1 VL with R24S, P27Q, T50A, Q88H, S93Y
notes: Tested as human IgG4 S228P
B8: S-SL048-81 hIgG4 S228P (antibody, V domains shown)
VH: B1 VH with S54G, Y57A
VL: B1 VL with P27S, L32M, N33H, T50A, R52S, P54Q, Q88H
notes: Tested as human IgG4 S228P
B9: S-SL048-86 hIgG4 S228P (antibody, V domains shown)
VH: B1 VH with I48M, S54G, Y57A
VL: B1 VL with P27Q, N33H, R52S, P54Q, Q88H, S93Y
notes: Tested as human IgG4 S228P
B10: S-SL048-89 hIgG4 S228P (antibody, V domains shown)
VH: B1 VH with I48M, D55S, Y57S, A61T
VL: B1 VL with S93N
notes: Tested as human IgG4 S228P
B11: S-SL048-104 hIgG4 S228P (antibody, V domains shown)
VH: B1 VH with I48M, S54G, Y57A, A61D, Q65K
VL: B1 VL with R24S, P27S, N33H, T50A, P54A, Q88H, S93T
notes: Tested as human IgG4 S228P
B12: S-SL048-105 hIgG4 S228P (antibody, V domains shown)
VH: B1 VH with I48M, Y57A
VL: B1 VL with R24S, P27Q, N33H, T50A, R52K, Q88H, S93Y
notes: Tested as human IgG4 S228P
B13: S-SL048-107 hIgG4 S228P (antibody, V domains shown)
VH: B1 VH with I48M, S54G, Y57A, A61N
VL: B1 VL with R52S
notes: Tested as human IgG4 S228P
B14: S-SL048-108 hIgG4 S228P (antibody, V domains shown)
VH: B1 VH with Y57A, Q65K
VL: B1 VL with R24S, R52S, P54A
notes: Tested as human IgG4 S228P
B15: S-SL048-110 hIgG4 S228P (antibody, V domains shown)
VH: B1 VH with I48M, S54G, Y57A, A61N, Q65K
VL: B1 VL with R24S, P27Q, N33H, T50A, P54A, Q88H, S93T
notes: Tested as human IgG4 S228P
B16: S-SL048-112 hIgG4 S228P (antibody, V domains shown)
VH: B1 VH with V50I, N52Y, S54G, Y57A, A61N, Q65K
VL: B1 VL with P27S, L32M, N33H, P54A, Q88H, S93T
notes: Tested as human IgG4 S228P
B17: S-SL048-115 hIgG4 S228P (antibody, V domains shown)
VH: B1 VH with I48M, Y57A, Q65K
VL: B1 VL with P27Q, L32M, N33H, T50A, R52K, Q88H
notes: Tested as human IgG4 S228P
B18: S-SL048-134 hIgG4 S228P (antibody, V domains shown)
VH: B1 VH with I48M, Y57A, Q65K
VL: B1 VL with R52K, S93Y
notes: Tested as human IgG4 S228P
B19: S-SL048-12 hIgG4 S228P (antibody, V domains shown)
VH: B1 VH with I48M, Y57A, A61T
VL: B1 VL with R24S, P27S, L32M, N33H, T50A, P54A, Q88H, S93T, P94S
notes: Tested as human IgG4 S228P
B20: S-SL048-45 hIgG4 S228P (antibody, V domains shown)
VH: B1 VH with I48M, Y57A, A61T
VL: B1 VL with P27Q, N33H, T50A, P54A, Q88H, S93T
notes: Tested as human IgG4 S228P
B21: S-SL048-75 hIgG4 S228P (antibody, V domains shown)
VH: B1 VH with I48M, N52Y, S54G, D55G, Q65K
VL: B1 VL with P27Q, R52N, P54Q, Q88H
notes: Tested as human IgG4 S228P

How the values were obtained:
Biotinylated human BSSL [1] = target: T1, Biotinylated human BSSL (human, UniProt P19835 21-753, Biotinylated on glycosacarides, 30-40 biotin/BSSL); assay: flow cytometry displacement assay; 1.5 ug antibody, 1 ug b-hBSSL
T1 construct: hBSSL biotinylated in house; also called b-hBSSL; human BSSL-biotin
T1 sequence: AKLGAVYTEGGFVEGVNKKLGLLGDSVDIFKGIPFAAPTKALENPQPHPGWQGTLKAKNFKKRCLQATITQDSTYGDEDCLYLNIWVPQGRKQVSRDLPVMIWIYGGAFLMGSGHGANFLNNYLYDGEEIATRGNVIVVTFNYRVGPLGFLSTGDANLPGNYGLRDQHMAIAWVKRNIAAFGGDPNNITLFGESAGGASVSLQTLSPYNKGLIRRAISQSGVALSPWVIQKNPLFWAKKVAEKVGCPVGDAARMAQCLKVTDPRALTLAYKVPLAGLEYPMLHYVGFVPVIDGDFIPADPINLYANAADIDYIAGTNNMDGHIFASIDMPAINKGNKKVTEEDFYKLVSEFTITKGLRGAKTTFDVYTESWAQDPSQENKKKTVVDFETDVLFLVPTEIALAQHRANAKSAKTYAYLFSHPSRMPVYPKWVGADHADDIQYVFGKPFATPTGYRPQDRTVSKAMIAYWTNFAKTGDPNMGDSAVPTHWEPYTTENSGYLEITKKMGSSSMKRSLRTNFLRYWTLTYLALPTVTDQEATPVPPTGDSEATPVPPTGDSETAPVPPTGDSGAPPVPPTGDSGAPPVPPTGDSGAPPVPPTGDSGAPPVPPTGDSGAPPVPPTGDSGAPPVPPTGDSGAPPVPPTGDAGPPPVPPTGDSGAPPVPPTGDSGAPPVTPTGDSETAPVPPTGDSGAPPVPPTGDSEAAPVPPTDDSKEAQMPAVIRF
Experimental: (§1) The 28 BSSL-specific hIgG4 antibodies and the five reference antibodies at different concentrations (ranging from 0.5 μg to 3.0 μg per reaction; see Table 10) were added to b-hBSSL (1 μg per reaction, see Table 2) in round-bottom polystyrene tubes, lx PBS (pH 7.4) was added to a final volume of 20 μl and the antibody/b-hBSSL mixtures were incubated for 30 min. at +4° C. to facilitate binding of antibodies to BSSL. Buffy coat (50 μl) was then added to each antibody/b-hBSSL mixture and incubation continued for another 30 min at +4° C. Thereafter, 2 ml of FACS lysing solution (BD Biosciences) was added and the cells were incubated for 10 min at room temperature in order to lyse erythrocytes and fix the white blood cells. The cells were then centrifuged for 5 min. at 200×g, the resulting pellets were washed by adding 2 ml of FACS buffer (1×PBS supplemented with 1% FCS and 0.1% NaN3) and centrifuged again. Finally, the supernatants were discarded and the cells were resuspended in the last drop of liquid, approximately 50 μl.
(§2) 5 μl of BV421-labelled anti-human CD14 (BD Biosciences) and 5 μl of BB515-labelled streptavidin (BD Biosciences) was added to each tube and incubated for 30 min, at +4° C., protected from light. Thereafter, cells were washed twice with FACS buffer, resuspended in 500 μl FACS buffer, and run on BD LSRII flow cytometer (BD Biosciences). Finally, data were analyzed using FlowJo software (BD Biosciences).

Mouse BSSL, recombinant = target: T2, Mouse BSSL, recombinant (mouse, UniProt Q64285 21-599); assay: SPR steady state, hIgG4 S228P captured by anti-Fab
T2 construct: Bought (R&D Systems, Cat. no 5658-CE); also called mBSSL; murine BSSL
T2 sequence: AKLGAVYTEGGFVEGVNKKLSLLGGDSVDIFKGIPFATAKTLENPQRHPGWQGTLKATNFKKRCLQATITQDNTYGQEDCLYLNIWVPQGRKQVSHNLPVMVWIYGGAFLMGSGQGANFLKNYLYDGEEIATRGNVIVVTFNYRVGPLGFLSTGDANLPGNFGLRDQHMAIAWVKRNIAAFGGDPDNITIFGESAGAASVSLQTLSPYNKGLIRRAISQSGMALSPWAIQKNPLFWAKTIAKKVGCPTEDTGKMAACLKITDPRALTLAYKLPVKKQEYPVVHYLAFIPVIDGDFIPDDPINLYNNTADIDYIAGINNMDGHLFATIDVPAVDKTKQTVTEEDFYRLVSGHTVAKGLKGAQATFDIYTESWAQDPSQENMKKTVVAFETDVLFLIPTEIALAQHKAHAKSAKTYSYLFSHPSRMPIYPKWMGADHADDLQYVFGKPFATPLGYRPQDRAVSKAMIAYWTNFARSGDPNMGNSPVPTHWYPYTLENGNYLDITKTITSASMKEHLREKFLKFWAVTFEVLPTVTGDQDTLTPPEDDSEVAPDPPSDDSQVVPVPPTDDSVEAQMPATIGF
Experimental: (§3) Kinetic parameters of the hIgG4 S228P clones were determined by SPR using BIACORE® T200 (GE Healthcare). Single cycle kinetics was used to measure the affinity of the purified hIgG4 molecules to human and mouse BSSL. An anti-Fab antibody (GE Healthcare, #28958325) was immobilized on a CM5 S sensor chip by primary amine coupling using NHS-EDC chemistry. hIgG4 was captured by the anti-Fab antibody, and subsequently, five different concentrations of hBSSL (1:5 dilutions starting from 50 nM) or mBSSL (1:5 dilutions starting from 500 nM) were injected over the surface. The sensor chip surface was regenerated with 10 mM glycine-HCl pH 2.1. For binding to human BSSL, single cycle kinetic data was fitted to a 1:1 binding model and kinetic parameters were retrieved using software BlAevaluation. For mouse BSSL, a steady state analysis was performed by plotting the response level at equilibrium against each concentration, and KD values were retrieved by the BlAevalution software.

Biotinylated human BSSL [2] = target: T1, Biotinylated human BSSL; assay: flow cytometry displacement assay; 3.0 ug antibody, 1 ug b-hBSSL
Experimental: as §1, §2

[3] = target: T3, Human BSSL (bile salt-stimulated lipase), native (human, UniProt P19835 21-753); assay: SPR single cycle kinetics, hIgG4 S228P captured by anti-Fab
T3 construct: Native full-length protein purified from human milk (Astra Hässle AB); also called hBSSL; non-biotinylated human BSSL
T3 sequence: T1 sequence
Experimental: as §3

Binder | percentage reduction of b-hBSSL binding to CD14+ monocytes (Biotinylated human BSSL [1]) [%] | Kd (Mouse BSSL, recombinant) [nM] | percentage reduction of b-hBSSL binding to CD14+ monocytes (Biotinylated human BSSL [2]) [%] | Kd [3] [nM]
B1 | 34 | 57 | 42 | 2.2
B2 | – | 57 | – | 0.9
B3 | 16 | 68 | 36 | 4.3
B4 | 58 | 68 | 61 | 2.3
B5 | 37 | 137 | 55 | 1.2
B6 | – | – | – | 8.5
B7 | 20 | 48 | 52 | 5
B8 | 31 | 60 | 62 | 4.4
B9 | – | 167 | – | 6.8
B10 | – | – | – | 6
B11 | 2 | 111 | 44 | 3.3
B12 | – | 237 | – | 6
B13 | 37 | 98 | 49 | 1.2
B14 | 41 | 149 | 48 | 1.3
B15 | – | 168 | – | 5.9
B16 | 28 | – | 54 | 5
B17 | – | 186 | – | 6
B18 | – | – | – | 1.8
B19 | – | 57 | – | 6.4
B20 | – | 82 | – | 9.6
B21 | – | 164 | – | –
